Experimental findings from PMC6451106 are described below.

Holding throughout (assay): MST
The target of test [1] is human 80S ribosome (non-translating, Puromycin-treated monosomes) (human (endogenous in HeLa)).
Test [2] addresses rabbit reticulocyte ribosome-nascent chain complexes exposing an SRP-targeting signal (rabbit | not stated).
The target of test [3] is human 80S ribosome (non-translating, Puromycin-treated monosomes) (human (endogenous in HeLa)). This is another data set of the same source.

Like-named read-outs stand apart in the source and are kept apart here.

One may read the Kd as the equilibrium constant for the complex coming apart. Higher therefore signals a looser complex. The molecule SRP54MΔC (domain or fragment) registered a Kd in test [1] of 100 nM. Same read-out and setting: in the case of SRP54NG (domain or fragment) it was 1650 nM.

For the molecule SRP54ΔC (domain or fragment), in test [1], the KD1 (two-site fit, PALMIST) is less than 100 nM; the KD of the first (high-affinity) binding event came out at 100 nM; the Kd was determined as 200 nM.

On to “SRP68/72ΔC (SRP68/72 heterodimer with the C-terminus of SRP72 truncated) (from UniProt Q9UHB9;O76094) (complex)”, for which, in test [1], the dissociation constant (Kd) was 420 nM. The same measure, in the same setting: as for “SRP72-RBD+C (C-terminal region of SRP72 including the RBD) (domain or fragment)”, the figure is 920 nM; as for “SRPS/SR complex with SRP54 (without signal sequence) (from UniProt P09132;Q9UHB9;O76094;P61011;P08240;Q9Y5M8)”, less than 1.4 nM. The same measure, in the same setting: in the case of “SRPS/SR complex with SRP54ss (signal sequence fused to SRP54) (from UniProt P09132;Q9UHB9;O76094;P61011;P08240;Q9Y5M8)” it was less than 2 nM; in that of “SRPS/SR complex with SRP54ΔC (without signal sequence) (from UniProt P09132;Q9UHB9;O76094;P61011;P08240;Q9Y5M8)”, less than 1.2 nM; in that of “SRαΔRBR/SRβ (from UniProt P08240;Q9Y5M8) (complex)”, more than 7500 nM. In the case of “SRαβ heterodimer (SRP receptor; full-length SRα with SRβ lacking its N-terminal TMD) (from UniProt P08240;Q9Y5M8) (complex)”, the Kd in test [1] is 410 nM. Still for that read-out and setting: as for “complete SRPS (SRP S domain: SRPS RNA, SRP19, SRP68/72 and full-length SRP54) (from UniProt P09132;Q9UHB9;O76094;P61011) (complex)”, the figure is less than 4.7 nM. “complete SRPS with SRP54ΔC (SRPS RNA, SRP19, SRP68/72 and SRP54ΔC) (from UniProt P09132;Q9UHB9;O76094;P61011) (complex)”: the Kd in test [1] is less than 4.7 nM. “entire human SRP (native 7SL RNA and all six SRP proteins) (from UniProt P49458;P37108;P09132;Q9UHB9;O76094;P61011) (complex)” yielded a concentration of saturation in test [1] of less than 2.2 nM. For the molecule “entire recombinant SRPS/SR system as measured with RNCs (from UniProt P09132;Q9UHB9;O76094;P61011;P08240;Q9Y5M8) (complex)”, the Kd in test [2] was less than 0.9 nM. For the molecule “quaternary SRPS complex with the SRP68/72 heterodimer without the SRP72 C-terminus (RNA/SRP19/SRP68/72ΔC) (from UniProt P09132;Q9UHB9;O76094)”, the Kd in test [1] is 370 nM. In other words, the sub-micromolar range.

In turn, “quaternary SRPS complex with the truncated SRP68/72–RBD constructs (RNA/SRP19/SRP68-RBD/SRP72-RBD in (from UniProt P09132 1-144)” displayed a Kd in test [1] of 1650 nM. One may read the stoichiometry N as a count of units in the complex or per binding partner. With “ternary SRPS complex (SRP RNA/SRP19/54) with full-length SRP54 (from UniProt P09132;P61011)”, in test [1], the Kd is less than 4.7 nM and the stoichiometry N turned out to be 1.

B1: Ffh from E. coli (natural protein)
chain: MFDNLTDRLSRTLRNISGRGRLTEDNVKDTLREVRMALLEADVALPVVREFINRVKEKAVGHEVNKSLTPGQEFVKIVRNELVAAMGEENQTLNLAAQPPAVVLMAGLQGAGKTTSVGKLGKFLREKHKKKVLVVSADVYRPAAIKQLETLAEQVGVDFFPSDVGQKPVDIVNAALKEAKLKFYDVLLVDTAGRLHVDEAMMDEIKQVHASINPVETLFVVDAMTGQDAANTAKAFNEALPLTGVVLTKVDGDARGGAALSIRHITGKPIKFLGVGEKTEALEPFHPDRIASRILGMGDVLSLIEDIESKVDRAQAEKLASKLKKGDGFDLNDFLEQLRQMKNMGGMASLMGKLPGMGQIPDNVKSQMDDKVLVRMEAIINSMTMKERAKPEIIKGSRKRRIAAGCGMQVQDVNRLLKQFDDMQRMMKKMKKGGMAKMMRSMKGMMPPGFPGR
In test [3], B1 came in with a Kd of 2300 nM. This lies in the single-digit micromolar range.

B2: SRP72 (natural protein)
chain: MASGGSGGVSVPALWSEVNRYGQNGDFTRALKTVNKILQINKDDVTALHCKVVCLIQNGSFKEALNVINTHTKVLANNSLSFEKAYCEYRLNRIENALKTIESANQQTDKLKELYGQVLYRLERYDECLAVYRDLVRNSQDDYDEERKTNLSAVVAAQSNWEKVVPENLGLQEGTHELCYNTACALIGQGQLNQAMKILQKAEDLCRRSLSEDTDGTEEDPQAELAIIHGQMAYILQLQGRTEEALQLYNQIIKLKPTDVGLLAVIANNIITINKDQNVFDSKKKVKLTNAEGVEFKLSKKQLQAIEFNKALLAMYTNQAEQCRKISASLQSQSPEHLLPVLIQAAQLCREKQHTKAIELLQEFSDQHPENAAEIKLTMAQLKISQGNISKACLILRSIEELKHKPGMVSALVTMYSHEEDIDSAIEVFTQAIQWYQNHQPKSPAHLSLIREAANFKLKYGRKKEAISDLQQLWKQNPKDIHTLAQLISAYSLVDPEKAKALSKHLPSSDSMSLKVDVEALENSAGATYIRKKGGKVTGDSQPKEQGQGDLKKKKKKKKGKLPKNYDPKVTPDPERWLPMRERSYYRGRKKGKKKDQIGKGTQGATAGASSELDASKTVSSPPTSPRPGSAATVSASTSNIIPPRHQKPAGAPATKKKQQQKKKKGGKGGW
For orientation: EC50 means the concentration that produces a half-maximal response. Low readings indicate higher potency in that assay, high ones lower potency in that assay. In test [3], B2 yielded an EC50 of 520 nM and a Kd of 820 nM.

B3: SRP68/72 complete heterodimer (complex)
chain 1: MAAEKQVPGGGGGGGSGGGGGSGGGGSGGGRGAGGEENKENERPSAGSKANKEFGDSLSLEILQIIKESQQQHGLRHGDFQRYRGYCSRRQRRLRKTLNFKMGNRHKFTGKKVTEELLTDNRYLLLVLMDAERAWSYAMQLKQEANTEPRKRFHLLSRLRKAVKHAEELERLCESNRVDAKTKLEAQAYTAYLSGMLRFEHQEWKAAIEAFNKCKTIYEKLASAFTEEQAVLYNQRVEEISPNIRYCAYNIGDQSAINELMQMRLRSGGTEGLLAEKLEALITQTRAKQAATMSEVEWRGRTVPVKIDKVRIFLLGLADNEAAIVQAESEETKERLFESMLSECRDAIQVVREELKPDQKQRDYILEGEPGKVSNLQYLHSYLTYIKLSTAIKRNENMAKGLQRALLQQQPEDDSKRSPRPQDLIRLYDIILQNLVELLQLPGLEEDKAFQKEIGLKTLVFKAYRCFFIAQSYVLVKKWSEALVLYDRVLKYANEVNSDAGAFKNSLKDLPDVQELITQVRSEKCSLQAAAILDANDAHQTETSSSQVKDNKPLVERFETFCLDPSLVTKQANLVHFPPGFQPIPCKPLFFDLALNHVAFPPLEDKLEQKTKSGLTGYIKGIFGFRS
chain 2: B2 chain
B3: the EC50 in test [3] came to 160 nM. In other words, the sub-micromolar range.

B4: Chloroplast SRP54 from Arabidopsis thaliana (natural protein)
chain: EMFGQLTGGLEAAWSKLKGEEVLTKDNIAEPMRDIRRALLEADVSLPVVRRFVQSVSDQAVGMGVIRGVKPDQQLVKIVHDELVKLMGGEVSELQFAKSGPTVILLAGLQGVGKTTVCAKLACYLKKQGKSCMLIAGDVYRPAAIDQLVILGEQVGVPVYTAGTDVKPADIAKQGLKEAKKNNVDVVIMDTAGRLQIDKGMMDELKDVKKFLNPTEVLLVVDAMTGQEAAALVTTFNVEIGITGAILTKLDGDSRGGAALSVKEVSGKPIKLVGRGERMEDLEPFYPDRMAGRILGMGDVLSFVEKATEVMRQEDAEDLQKKIMSAKFDFNDFLKQTRAVAKMGSMTRVLGMIPGMGKVSPAQIREAEKNLLVMEAMIEVMTPEERERPELLAESPERRKRIAKDSGKTEQQVSALVAQIFQMRVKMKNLMGVMEGGSIPALSGLEDALKAEQKAPPGTARRKRKADSRKKFVESASSKPGPRGFGSGN
Take B4: in test [3], the Kd was more than 1200 nM.
